From PMC2362229 come the findings set out here.

In the series the test system is COc1cccc2c1C(=O)c1c(O)c3c(c(O)c1C2=O)C[C@@](O)(C(C)=O)C[C@@H]3O[C@H]1C[C@H](N)[C@H](O)[C@H](C)O1. As to the kind of experiment: cells, lysate or membranes named. As to conditions: other: Lineweaver-Burk plots; rat canalicular vesicles; pH 7.4.

Sequence of Mdr1b P-gp (Rattus norvegicus) (chain, as listed by the source): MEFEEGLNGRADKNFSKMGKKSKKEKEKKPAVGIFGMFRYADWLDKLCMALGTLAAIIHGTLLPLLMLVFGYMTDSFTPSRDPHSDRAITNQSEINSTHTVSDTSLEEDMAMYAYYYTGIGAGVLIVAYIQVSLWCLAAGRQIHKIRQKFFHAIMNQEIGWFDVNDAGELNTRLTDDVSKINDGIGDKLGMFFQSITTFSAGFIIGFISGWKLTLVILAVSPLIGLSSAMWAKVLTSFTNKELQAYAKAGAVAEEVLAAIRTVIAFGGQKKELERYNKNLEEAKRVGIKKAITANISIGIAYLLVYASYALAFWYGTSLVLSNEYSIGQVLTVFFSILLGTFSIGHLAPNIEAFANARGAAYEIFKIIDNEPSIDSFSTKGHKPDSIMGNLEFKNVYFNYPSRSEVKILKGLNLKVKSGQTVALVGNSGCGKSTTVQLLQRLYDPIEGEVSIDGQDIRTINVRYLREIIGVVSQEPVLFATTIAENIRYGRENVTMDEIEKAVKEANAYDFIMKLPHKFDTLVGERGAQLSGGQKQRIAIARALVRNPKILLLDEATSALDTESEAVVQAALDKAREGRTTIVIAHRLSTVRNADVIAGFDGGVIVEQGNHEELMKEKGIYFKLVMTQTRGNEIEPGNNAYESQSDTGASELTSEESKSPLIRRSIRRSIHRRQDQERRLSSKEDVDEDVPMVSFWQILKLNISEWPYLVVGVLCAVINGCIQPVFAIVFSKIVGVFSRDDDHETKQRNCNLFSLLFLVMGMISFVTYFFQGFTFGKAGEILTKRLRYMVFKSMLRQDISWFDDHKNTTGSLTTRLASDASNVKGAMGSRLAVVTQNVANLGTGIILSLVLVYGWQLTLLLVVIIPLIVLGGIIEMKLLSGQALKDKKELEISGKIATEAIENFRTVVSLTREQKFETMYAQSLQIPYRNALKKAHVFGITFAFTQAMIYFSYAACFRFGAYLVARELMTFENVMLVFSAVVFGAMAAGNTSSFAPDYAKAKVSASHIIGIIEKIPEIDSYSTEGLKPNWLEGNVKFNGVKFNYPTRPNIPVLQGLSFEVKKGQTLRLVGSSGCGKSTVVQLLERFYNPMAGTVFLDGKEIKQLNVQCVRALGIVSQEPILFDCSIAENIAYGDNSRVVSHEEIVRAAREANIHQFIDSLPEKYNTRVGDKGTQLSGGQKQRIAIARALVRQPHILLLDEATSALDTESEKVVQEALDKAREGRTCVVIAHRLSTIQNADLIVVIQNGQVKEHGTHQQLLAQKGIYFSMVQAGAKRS

Usually Km stands for the substrate concentration at which the rate is half of its maximum. Consider Mdr1b P-gp (Rattus norvegicus), for which the Km was found to be 33 µM.
